± gives the standard deviation of the averaged measurements.
B1: library; a variant is named by its letters at N, in order (parent)
chain: AATGTTGTTGATGCAACCATAAAGTGATATTTAATAATTATTTATAATCAGCAACTTAACCACAAAACAACCATATATTGATATNTCACAAAACAACCATAANTTGATATTTTTGTGAATCGAGTATTTCAGCAAAACTACTGCAGTAAGAA

What was measured:
[1] = variants of: B1; assay: relative integration efficiency (T-LR orientation) vs wild-type transposon end (log2 (normalized fold change)); transposon end mutated: left end; higher = more efficient transposition; details: with VchCAST RNA-guided transposition machinery (E. coli BL21(DE3) host, lacZ target)
Method: (§1)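 Pooled, barcoded VchCAST (Tn6677) mini-transposon donor libraries; each variable transposon-end sequence sits in a fixed pDonor mini-transposon context (10-bp barcode and cargo not included). Left- or right-end libraries were co-transformed with pEffector (TniQ-Cascade, TnsABC, lacZ crRNA, T7, 0.1 mM IPTG) into E. coli BL21(DE3) and grown 18 h at 37 C. T-LR and T-RL junction amplicons were sequenced; output/input barcode fold change was normalised to the mean of four wild-type barcodes and log2-transformed. Two biological replicates; zero-count/undetected variants carry floor values (-10 / -15), censored here. Barcode uncoupling by PCR recombination adds noise.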

[2] = variants of: B1; assay: relative integration efficiency (T-RL orientation) vs wild-type transposon end (log2 (normalized fold change)); transposon end mutated: left end; higher = more efficient transposition; details: with VchCAST RNA-guided transposition machinery (E. coli BL21(DE3) host, lacZ target)
Method: as §1

AATGTTCTTGATGCAACCATAAAGTGATATTTAATAATTATTTATAATCAGCAACTTAACCACAAAACAACCATATATTGATATCTCACAAAACAACCATAAGTTGATATTTTTGTGAATCGAGTATTTCAGCAAAACTACTGCAGTAAGAA [CG G7C]
relative integration efficiency (log2) [1]: -0.0662 ± 0.49
relative integration efficiency (log2) [2]: -0.11 ± 0.25

AATGTTGTTGATGCAACCATAAAGTGATATTTAATAATTATTTATAATCAGCAACTTAACCACAAAACAACCATATATTGATATCTCACAAAACAACCATAAGTTGATATTTTTGACTTTCGAGTATTTCAGCAAAACTACTGCAGTAAGAA [CG T116A G117C A118T A119T]
relative integration efficiency (log2) [1]: 0.00543 ± 0.19
relative integration efficiency (log2) [2]: 0.0211 ± 0.042

AATGTTGTTGATGCAACCATAAAGTGATATTTAATAATTATTTATAATCAGCAACTTAACCACAAAACAACCATATATTGATATCTCAAAAAACAACCATAAGTTGATATTTTTGTGAATCGAGTATTTCAGCAAAACTACTGCAGTAAGAA [CG C89A]
relative integration efficiency (log2) [1]: 0.447 ± 0.3
relative integration efficiency (log2) [2]: 0.031 ± 0.013

AATGTTGTTGATGCAACCATATATTGATATCTCATAATTATTTATAATCAGCAACTTAACCACAAAACAACCATATATTGATATCTCACAAAACAACCATAAAGTGATATTTATGTGAATCGAGTATTTCAGCAAAACTACTGCAGTAAGAA [CA A22T G24T T31C A33C T104G T113A]
relative integration efficiency (log2) [1]: -0.697 ± 0.046
relative integration efficiency (log2) [2]: -0.629 ± 0.23

AATGTTGTTGATGCAACCATAAAGTGATATTTAATAATTATTTATAATCAGCAACTTAACCACAAAACAACCATATATTGATATCCCACAAAACAACCATAAGTTGATATTTTTGTGAATCGAGTATTTCAGCAAAACTACTGCAGTAAGAA [CG T86C]
relative integration efficiency (log2) [1]: 0.176 ± 0.013
relative integration efficiency (log2) [2]: -0.261 ± 0.092

AATGTTGTTGATGCAACCATAAAGTGATATTTAATAATTATTTATAATCAGCAACTTAACCACAAAACAACCATAAATTGATATCTCACAAAACAACCATAAGTTGATATTTTTGTGAATCGAGTATTTCAGCAAAACTACTGCAGTAAGAA [CG T76A]
relative integration efficiency (log2) [1]: 0.179 ± 0.069
relative integration efficiency (log2) [2]: 0.0494 ± 0.062

AATGTTGTTGATGCAACCATAAAGTGATATTTAATAATTATTTATAATCAGCAACTTAACCACAAAACAACCATATATTGATATCTCACAAAACCCCCATAAGTTGATATTTTTGTGAATCGAGTATTTCAGCAAAACTACTGCAGTAAGAA [CG A95C A96C]
relative integration efficiency (log2) [1]: -0.693 ± 0.86
relative integration efficiency (log2) [2]: -0.385 ± 0.4

AATGTTGTTGATGCAACCATAAAGTGATATTTAATAATTATTTATAATCAGCAACTTAACCACAAAACAAAAATATATTGATATCTCACAAAACAACCATAAGTTGATATTTTTGTGAATCGAGTATTTCAGCAAAACTACTGCAGTAAGAA [CG C71A C72A]
relative integration efficiency (log2) [1]: -1.63 ± 1.1
relative integration efficiency (log2) [2]: -1.05 ± 0.77

AATGTTGTTGATGCAACCATAAAGTGATATTTAATAAAAATTTATAATCAGCAACTTAACCACAAAACAACCATATATTGATATCTCACAAAACAACCATAAGTTGATATTTTTGTGAATCGAGTATTTCAGCAAAACTACTGCAGTAAGAA [CG T38A T39A]
relative integration efficiency (log2) [1]: 0.516 ± 0.23
relative integration efficiency (log2) [2]: 0.474 ± 0.18

AATGTTGTTGATGAAACCATAAAGTGATATTTAATAATTATTTATAATCAGCAACTTAACCACAAAAAAACCATATATTGATATCTCACAAAAAAACCATAAGTTGATATTTTTGTGAATCGAGTATTTCAGCAAAACTACTGCAGTAAGAA [CG C14A C68A C94A]
relative integration efficiency (log2) [1]: -1.29 ± 1.1
relative integration efficiency (log2) [2]: -0.864 ± 0.51

AATGTTGTTGATGCAACACTAAAGTGATATTTAATAATTATTTATAATCAGCAACTTAACCACAAAACAACCATATATTGATATCTCACAAAACAACCATAAGTTGATATTTTTGTGAATCGAGTATTTCAGCAAAACTACTGCAGTAAGAA [CG C18A A19C]
relative integration efficiency (log2) [1]: -1.46 ± 0.83
relative integration efficiency (log2) [2]: -1.68 ± 0.79

AATGTTGTTGATGCAACCATAAAATGATAATTAATAATTATTTATAATCAGCAACTTAACCACAAAACACCCATAAATTGATATTGCACAAAACACCCATAAATTGATATTGCTGTGAATCGAGTATTTCAGCAAAACTACTGCAGTAAGAA [TA G24A T30A A70C T76A T86G A96C T112G T113C]
relative integration efficiency (log2) [1]: 0.18 ± 0.5
relative integration efficiency (log2) [2]: 0.313 ± 0.07

AATGTTGTTGATGCAACCATAAAGTGATATTTAATAATTATTTATAATCAGGAACTTAACCACAAAACAACCATATATTGATATCTCACAAAACAACCATAAGTTGATATTTTTGTGAATCGAGTATTTCAGCAAAACTACTGCAGTAAGAA [CG C52G]
relative integration efficiency (log2) [1]: 0.484 ± 0.31
relative integration efficiency (log2) [2]: -0.00219 ± 0.15

AATGTTGTTGATGCAACCATAAAGTGATATTTAATAATTATTTATAATCAGCTTGATAACCACAAAACAACCATATATTGATATCTCACAAAACAACCATAAGTTGATATTTTTGTGAATCGAGTATTTCAGCAAAACTACTGCAGTAAGAA [CG A53T A54T C55G T56A]
relative integration efficiency (log2) [1]: -0.3673 ± 0.0015
relative integration efficiency (log2) [2]: -0.413 ± 0.41

AATGTTGTTGATGCAACCATAAAGTGATATTTAATAATTATTTATAATCAGCAACTTAACCACAAAACAACCATATATTGATTTCTCACAAAACAACCATAAGTTGATATTTTTGTGAATCGAGTATTTCAGCAAAACTACTGCAGTAAGAA [CG A83T]
relative integration efficiency (log2) [1]: -0.465 ± 0.53
relative integration efficiency (log2) [2]: -0.189 ± 0.057

AATGTTGTTGATGCAACCATAAAGTGATATTTAATAATTATTTTATTTCAGCAACTTAACCACAAAACAACCATATATTGATATCTCACAAAACAACCATAAGTTGATATTTTTGTGAATCGAGTATTTCAGCAAAACTACTGCAGTAAGAA [CG A44T T45A A46T A47T]
relative integration efficiency (log2) [1]: 0.462 ± 0.079
relative integration efficiency (log2) [2]: -0.0681 ± 0.078

AATGTTGTTGATGCAACCATAAAGTGATATTTAATAATTATTTATAATCAGCAACTTAACCACAAAACACCCATAAATTGATATTGCACAAAACACCCATAAATTGATATTGCTGTGAATCGAGTATTTCAGCAAAACTACTGCAGTAAGAA [TA A70C T76A T86G A96C T112G T113C]
relative integration efficiency (log2) [1]: 0.367 ± 0.4
relative integration efficiency (log2) [2]: -0.132 ± 0.23

AATCATGTTGATGCAACCATAAAGTGATATTTAATAATTATTTATAATCAGCAACTTAACCACAAAACAACCATATATTGATATCTCACAAAACAACCATAAGTTGATATTTTTGTGAATCGAGTATTTCAGCAAAACTACTGCAGTAAGAA [CG G4C T5A]
relative integration efficiency (log2) [1]: 0.189 ± 0.31
relative integration efficiency (log2) [2]: 0.0402 ± 0.15

AATGTTGTTGATGCAACCATAAAGTGATATTTAATAATTATTTATAATCAGCAACTTAACCACAAAACAACCATATATTGATATCTCACAAAACAACTATAAGTTGATATTTTTGTGAATCGAGTATTTCAGCAAAACTACTGCAGTAAGAA [CG C98T]
relative integration efficiency (log2) [1]: -0.0503 ± 0.61
relative integration efficiency (log2) [2]: -0.178 ± 0.14

Source: the supplement of paper PMC10201428
